Source: patent publication US20090269346A1
pKd: −log10 of the molar value. One block for each substance: values may come before it.

Columns and labels:
GFRα-1 [1] = assay: solid-phase binding assay (FIG. 11)
GFRα-1 [2] = assay: solid-phase assay (ELISA): RAP-GDNF concentration varied on GFRalpha-1, OD 450 nm; per paragraph 304 GFRalpha-1 coated on the plate and bound protein detected with anti-GDNF mAb
LRP1 CR3-5 (human) = assay: solid-phase assay, coated CR protein, RAP-IDU detected by iduronidase activity
LRP2 CR3435 (human) = LRP2 CR3435 (human) (UniProt P98164); assay: solid-phase assay: CR protein coated on the plate, RAP-IDU titrated, bound iduronidase activity read as rfu
[3] = molecular target: LRP2 CR89 Y1042W V1047D (human) (UniProt P98164); assay: solid-phase assay, coated CR protein, anti-RAP, OD450
Sequence of LRP2 CR89 Y1042W V1047D (human) (P98164 1022-1105 Y1043W/V1048D limits assumed): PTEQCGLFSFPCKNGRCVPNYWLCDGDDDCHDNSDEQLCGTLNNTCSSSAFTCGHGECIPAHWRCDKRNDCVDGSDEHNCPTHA

Sequence of LRP1 CR3-5 (human) (Q07954 852-973): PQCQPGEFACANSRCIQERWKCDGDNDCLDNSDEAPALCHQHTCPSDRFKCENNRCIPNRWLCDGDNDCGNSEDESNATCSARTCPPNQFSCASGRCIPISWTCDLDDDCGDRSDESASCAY

- Kd (GFRα-1 [1]): 5 ng/mL
- EC50 (read off the curve) (GFRα-1 [2]): 2 ng/mL
Substance: RAP-GDNF fusion protein (from UniProt P39905 78-211)

- pKd (LRP1 CR3-5 (human)): 8.52
- pKd (LRP2 CR3435 (human)): 6.14
Substance: RAP-IDU (fusion of RAP and human α-L-iduronidase) (from UniProt P35475 28-653)

- % max bind [3]: 11%
Substance: wild-type RAP d3 (from UniProt P30533 235-353) (ligand)
